Results as given in patent US20080267950A1 (BOARD OF TRUSTEES OF THE UNIVERSITY OF ARKANSAS, published 2008).

Experiments:
[1] = molecular target: T1, LRP5 in C2C12 cell lysate (mouse, UniProt Q91VN0 31-1614); assay: co-immunoprecipitation: BMPR immunoprecipitated from C2C12 lysate, blotted with anti-LRP5
T1 construct: also called LDL receptor-related protein 5

[2] = molecular target: T2, LRP6 in C2C12 cell lysate (mouse, UniProt O88572 20-1613); assay: co-immunoprecipitation: BMPR immunoprecipitated from C2C12 lysate, blotted with anti-LRP6
T2 construct: also called LDL receptor-related protein 6
T2 sequence (O88572 20-1613 limits assumed): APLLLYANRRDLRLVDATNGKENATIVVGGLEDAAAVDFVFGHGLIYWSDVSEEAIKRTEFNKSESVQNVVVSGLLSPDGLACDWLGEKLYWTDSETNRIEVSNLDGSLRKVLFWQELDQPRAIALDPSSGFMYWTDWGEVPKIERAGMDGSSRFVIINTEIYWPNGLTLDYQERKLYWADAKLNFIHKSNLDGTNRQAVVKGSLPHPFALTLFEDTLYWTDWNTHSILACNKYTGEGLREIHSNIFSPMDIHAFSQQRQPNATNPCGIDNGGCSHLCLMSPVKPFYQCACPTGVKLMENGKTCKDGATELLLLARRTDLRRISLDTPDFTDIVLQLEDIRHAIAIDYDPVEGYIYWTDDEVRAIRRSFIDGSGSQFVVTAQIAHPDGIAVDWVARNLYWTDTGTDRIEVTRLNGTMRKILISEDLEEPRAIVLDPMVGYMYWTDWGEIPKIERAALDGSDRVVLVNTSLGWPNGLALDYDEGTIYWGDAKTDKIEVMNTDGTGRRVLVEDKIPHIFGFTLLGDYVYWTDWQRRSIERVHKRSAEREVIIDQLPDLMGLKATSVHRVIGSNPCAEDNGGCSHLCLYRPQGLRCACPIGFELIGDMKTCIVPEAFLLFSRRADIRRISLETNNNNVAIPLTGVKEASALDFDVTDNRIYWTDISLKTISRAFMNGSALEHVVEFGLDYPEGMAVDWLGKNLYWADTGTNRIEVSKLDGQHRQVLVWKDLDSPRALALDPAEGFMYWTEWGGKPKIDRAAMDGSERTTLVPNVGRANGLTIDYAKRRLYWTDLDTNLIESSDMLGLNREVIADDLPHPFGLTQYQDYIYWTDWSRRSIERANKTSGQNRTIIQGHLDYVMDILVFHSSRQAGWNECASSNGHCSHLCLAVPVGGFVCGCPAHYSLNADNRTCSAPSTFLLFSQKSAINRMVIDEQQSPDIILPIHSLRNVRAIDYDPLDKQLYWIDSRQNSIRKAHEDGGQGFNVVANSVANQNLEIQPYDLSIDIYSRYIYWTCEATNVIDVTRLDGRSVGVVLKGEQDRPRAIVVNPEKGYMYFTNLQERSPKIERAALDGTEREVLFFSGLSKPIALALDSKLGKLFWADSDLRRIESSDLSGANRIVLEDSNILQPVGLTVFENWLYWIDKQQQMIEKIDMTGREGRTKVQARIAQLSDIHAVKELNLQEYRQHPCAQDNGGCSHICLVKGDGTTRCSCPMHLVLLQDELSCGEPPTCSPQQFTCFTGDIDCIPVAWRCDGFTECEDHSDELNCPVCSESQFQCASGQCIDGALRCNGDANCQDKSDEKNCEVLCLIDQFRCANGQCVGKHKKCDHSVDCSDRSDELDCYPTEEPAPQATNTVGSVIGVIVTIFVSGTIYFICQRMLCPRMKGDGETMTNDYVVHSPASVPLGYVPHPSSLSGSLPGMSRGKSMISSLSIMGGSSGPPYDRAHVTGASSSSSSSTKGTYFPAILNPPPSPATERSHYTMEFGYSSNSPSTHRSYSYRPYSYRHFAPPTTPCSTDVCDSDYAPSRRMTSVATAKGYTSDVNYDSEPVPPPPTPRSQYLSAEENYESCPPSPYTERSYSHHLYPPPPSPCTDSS

T1 sequence (Q91VN0 31-1614 limits assumed): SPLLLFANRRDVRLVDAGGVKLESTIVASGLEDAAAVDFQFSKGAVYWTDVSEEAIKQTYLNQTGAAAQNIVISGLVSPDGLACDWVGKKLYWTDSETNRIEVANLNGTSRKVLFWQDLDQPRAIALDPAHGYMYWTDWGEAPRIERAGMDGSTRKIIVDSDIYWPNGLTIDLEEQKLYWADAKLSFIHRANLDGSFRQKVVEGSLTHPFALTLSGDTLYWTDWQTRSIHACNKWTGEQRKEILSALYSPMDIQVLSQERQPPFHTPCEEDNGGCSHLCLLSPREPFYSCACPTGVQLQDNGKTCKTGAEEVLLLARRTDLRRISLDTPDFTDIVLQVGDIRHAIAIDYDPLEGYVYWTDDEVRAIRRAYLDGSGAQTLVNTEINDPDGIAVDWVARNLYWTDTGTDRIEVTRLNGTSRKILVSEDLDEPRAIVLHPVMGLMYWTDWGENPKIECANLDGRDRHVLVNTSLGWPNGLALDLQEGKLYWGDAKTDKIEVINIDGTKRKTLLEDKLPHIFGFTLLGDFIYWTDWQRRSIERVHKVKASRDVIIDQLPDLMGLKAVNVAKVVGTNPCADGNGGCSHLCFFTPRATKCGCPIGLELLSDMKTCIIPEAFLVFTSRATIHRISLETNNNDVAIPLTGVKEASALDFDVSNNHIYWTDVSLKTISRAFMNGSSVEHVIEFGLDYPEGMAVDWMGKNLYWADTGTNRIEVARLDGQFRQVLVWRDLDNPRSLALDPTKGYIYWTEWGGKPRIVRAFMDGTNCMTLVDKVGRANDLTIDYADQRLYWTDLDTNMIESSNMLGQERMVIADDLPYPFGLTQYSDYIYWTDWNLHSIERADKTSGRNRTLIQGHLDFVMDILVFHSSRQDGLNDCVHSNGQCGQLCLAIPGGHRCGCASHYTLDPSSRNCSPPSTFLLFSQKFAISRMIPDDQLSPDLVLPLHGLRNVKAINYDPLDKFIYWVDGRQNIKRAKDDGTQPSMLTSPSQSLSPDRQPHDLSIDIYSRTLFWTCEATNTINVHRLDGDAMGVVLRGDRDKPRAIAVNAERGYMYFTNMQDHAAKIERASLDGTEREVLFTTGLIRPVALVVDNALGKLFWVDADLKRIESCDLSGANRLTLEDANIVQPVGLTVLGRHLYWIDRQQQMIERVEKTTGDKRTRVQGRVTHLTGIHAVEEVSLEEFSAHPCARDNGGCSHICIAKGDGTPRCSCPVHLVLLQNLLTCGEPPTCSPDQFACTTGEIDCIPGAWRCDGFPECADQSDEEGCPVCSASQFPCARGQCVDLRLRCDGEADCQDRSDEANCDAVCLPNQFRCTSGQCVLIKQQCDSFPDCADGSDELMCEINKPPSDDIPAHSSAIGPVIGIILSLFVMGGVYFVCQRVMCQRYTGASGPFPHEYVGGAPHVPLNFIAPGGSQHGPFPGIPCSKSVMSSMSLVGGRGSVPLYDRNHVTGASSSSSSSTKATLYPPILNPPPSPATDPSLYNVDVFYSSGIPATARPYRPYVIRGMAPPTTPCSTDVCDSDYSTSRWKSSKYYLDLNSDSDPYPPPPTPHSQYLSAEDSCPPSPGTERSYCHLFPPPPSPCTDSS

- binding result [1]: no binding
- binding result [2]: no binding
B1: BMPR-II in C2C12 cell lysate (receptor, mouse, UniProt O35607 27-1038, looked up)
chain: SQNQERLCAFKDPYQQDLGIGESRISHENGTILCSKGSTCYGLWEKSKGDINLVKQGCWSHIGDPQECHYEECVVTTTPPSIQNGTYRFCCCSTDLCNVNFTENFPPPDTTPLSPPHSFNRDETIIIALASVSVLAVLIVALCFGYRMLTGDRKQGLHSMNMMEAAAAEPSLDLDNLKLLELIGRGRYGAVYKGSLDERPVAVKVFSFANRQNFINEKNIYRVPLMEHDNIARFIVGDERLTADGRMEYLLVMEYYPNGSLCKYLSLHTSDWVSSCRLAHSVTRGLAYLHTELPRGDHYKPAISHRDLNSRNVLVKNDGACVISDFGLSMRLTGNRLVRPGEEDNAAISEVGTIRYMAPEVLEGAVNLRDCESALKQVDMYALGLIYWEVFMRCTDLFPGESVPDYQMAFQTEVGNHPTFEDMQVLVSREKQRPKFPEAWKENSLAVRSLKETIEDCWDQDAEARLTAQCAEERMAELMMIWERNKSVSPTVNPMSTAMQNERNLSHNRRVPKIGPYPDYSSSSYIEDSIHHTDSIVKNISSEHSMSSTPLTIGEKNRNSINYERQQAQARIPSPETSVTSLSTNTTTTNTTGLTPSTGMTTISEMPYPDETHLHATNVAQSIGPTPVCLQLTEEDLETNKLDPKEVDKNLKESSDENLMEHSLKQFSGPDPLSSTSSSLLYPLIKLAVEVTGQQDFTQAANGQACLIPDVPPAQIYPLPKQQNLPKRPTSLPLNTKNSTKEPRLKFGNKHKSNLKQVETGVAKMNTINAAEPHVVTVTMNGVAGRSHNVNSHAATTQYANGAVPAGQAANIVAHRSQEMLQNQFIGEDTRLNINSSPDEHEPLLRREQQAGHDEGVLDRLVDRRERPLEGGRTNSNNNNSNPCSEQDILTQGVTSTAADPGPSKPRRAQRPNSLDLSATNILDGSSIQIGESTQDGKSGSGEKIKRRVKTPYSLKRWRPSTWVISTEPLDCEVNNNGSDRAVHSKSSTAVYLAEGGTATTTVSKDIGMNCL
notes: also called BMP-2 receptor
